Source: patent US20040247614A1 (J DAVID GLADSTONE INSTITUTES, published 2004)

Molecular target: T1, GST alone (UniProt P08515 1-218 = GST)
T1 construct: Control in the GST pulldown
Assay: GST pulldown, immunoblot with anti-Tat mAb

T1 sequence (P08515 whole entry): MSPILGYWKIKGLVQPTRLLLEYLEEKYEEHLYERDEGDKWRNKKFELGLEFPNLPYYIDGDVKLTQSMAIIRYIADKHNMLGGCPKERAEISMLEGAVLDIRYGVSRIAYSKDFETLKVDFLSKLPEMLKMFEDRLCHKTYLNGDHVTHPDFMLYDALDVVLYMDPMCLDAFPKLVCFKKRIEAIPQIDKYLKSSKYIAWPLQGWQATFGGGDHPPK

B1: synthetic unacetylated Tat (other)
chain: MEPVDPRLEPWKHPGSQPKTACTTCYCKKCCFHCQVCFTTKALGISYGRKKRRQRRRPPQGSQTHQVSLSKQ
notes: range 1-72; also called nonacetylated Tat
  binding result: no binding

B2: synthetic Tat protein containing a single acetylated lysine at position 50 (AcTat) (other)
chain: MEPVDPRLEPWKHPGSQPKTACTTCYCKKCCFHCQVCFTTKALGISYGRKKRRQRRRPPQGSQTHQVSLSKQ
modifications: acetylated lysine at position 50 (K50)
notes: range 1-72; also called acetylated Tat; K50-acetylated Tat
  binding result: no binding
